B1: Zygote defective protein 9 (Caenorhabditis elegans), G5EEM5 (parent)
chain: MSNWDYLDEVDILPKLPPNFDELRESKKWQERKEALEALLKVLTDNERLSTKASYAELIGHLQMVLAKDANINCQALAAKCIGKFATGLRAKFSSFAGPLLPVIFEKMKEKKPMLREPLVDCSNEVGRTMQSLETGQEDILAALAKPNPQIKQQTALFVARQLDLVVPAKQPKGFIKAVVPVFGKLTGDADQDVREASLQGLGAVQRIIGDKNVKNLLGDASSDEGKMKKIGEYAEKSTASFAEEQAKNAPPVAPTSSTPSASAASGDPSGGTATAVVSSGAPVAEADPWDFLDAFDVLSKMPDGFDTNIESKKWQERKEALEGLLQLITANPKLDPKANYGALVERLQKVLEKDANINVAALAANCITGIANGLRTKFQPFAVSVTPIIFEKFKEKKPTLRDPLVACIDAVVATTNLEAVGEIVLAALGKPNPSIKTQTDLFLQRCFMKLNSQTMPKKTLKTLIPSLIKHSGDSDSEVREASYAAMGAMMRAIGEKPSLQLLADIASDNLKMSKIKEFHQKALDEAGPAEIAEMVKSIHKADAPPAAAPPKKTAPPKKQPEDEEVVEEEDEPLKPPPGDKKKKVPVKENEENEPPVVAPKAELLLSDNEDKKQRIKEEKQLKLVKWNFQAPTDEHISQLQTLLGNQAKVSLMSQLFHKDFKQHLAALDSLVRLADTSPRSLLSNSDLLLKWCTLRFFETNPAALIKVLELCKVIVELIRDTETPMSQEEVSAFVPYLLLKTGEAKDNMRTSVRDIVNVLSDVVGPLKMTPMLLDALKSKNARQRSECLLVIEYYITNAGISPLKSLSVEKTVAPFVGDKDVNVRNAAINVLVACFKFEGDQMWKAAGRMADKDKSLVEERIKRTGVKPGSGVVTSPPTGGPKILVPQQQGSVVRRPASRSRTREPEPEEVQSDTFTIRQDTMPPKTSSRYALRDDVFSSAMGRLDGTQVITPPQPVNGWSNNTFQMKRTNSSSSISSIDTSDQIQRSINNISSSLADVAQDAMFQVTYVLNQPEQRHLVDRRADLVFRASAAQLDLVIEEFNAGRDVSGTMDACTQMLFILMGGVETEHGLEPLNASPDTVKAIISSVLRCIIQIGNTESGYGMARSLNRLAMRLIYRVELSNLLCGLILAMTESLQMNTGITELVSKLSSKWCDELEKRRAQLRASDIVDSFNAFYVCALTELKMDISDSHILIVDNYLERVILQQGDVVLDAARRLSRPHMHLTSMINKILQMMRERKIDPIMPGTLEARMPQEDEAVVVRSGVQVSIDNILRDTSMAVKHIEQLNILIASSDRSWNEYMEYLKNNPMGELIKELVGECSRKKRIDFNLSHVVKSSMAVFKAMAATGPVQEEGRITPTDINRMDTMIVGTPLSRGDATITRARGNMIRPKRTTLSRDQMANIRHTLDRVKNH
partner: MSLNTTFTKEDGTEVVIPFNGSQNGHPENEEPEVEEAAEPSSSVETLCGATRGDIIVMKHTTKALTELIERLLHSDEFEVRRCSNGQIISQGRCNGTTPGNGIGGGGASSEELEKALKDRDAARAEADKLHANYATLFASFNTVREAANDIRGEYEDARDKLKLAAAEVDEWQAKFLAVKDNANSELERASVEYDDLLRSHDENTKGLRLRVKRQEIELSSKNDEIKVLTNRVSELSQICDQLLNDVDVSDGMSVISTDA
B2: Transforming acid coiled-coil-containing protein 1 (Caenorhabditis elegans), G5ECG0 (parent)
chain: B1 partner
partner: B1 chain

Variants of: B1
Settings: with tacc1_caeel tac-1, G5ECG0

effect of a mutation on the interaction | Variant
decreasing interaction | E1317K
decreasing interaction | I862K

Variants of: B2
Settings: with zyg9_caeel zyg-9, G5EEM5

effect of a mutation on the interaction | Variant
decreasing interaction | L229F

From IntAct's records for PubMed 17666432
